Experimental data taken from PMC10681803, “Dynamic ParB–DNA interactions initiate and maintain a partition condensate for bacterial chromosome segregation” (Nucleic Acids Research, 2023).
Residue numbers refer to the chain shown, from its start. Names may count otherwise.

Legend:
[1] = biological target: the molecule itself; assay: single-molecule fluorescence DNA-stretching assay (HiLo/TIRF microscopy); 42 kb DNA with a single parS tethered at both ends, SxG stain; 0.3 nM ParB^TMR in imaging buffer (40 mM Tris-HCl, 65 mM KCl, 2.5 mM MgCl2, 1 mM CTP); both ParB dimers loaded on the DNA
[2] = biological target: the molecule itself; assay: cross-linking; BMOE (1 mM) cysteine cross-linking of ParB^S278C at 10 uM in storage buffer (50 mM Tris-HCl pH 7.5, 300 mM NaCl) without DNA, quenched with DTT, 12% SDS-PAGE
[3] = biological target: the molecule itself; assay: cross-linking; BMOE cysteine cross-linking of ParB^T22C [2 uM] with ~200 bp DNA with parS [2 uM] and 1 mM CTP, room temperature, quenched with DTT, 12% SDS-PAGE

B1: TMR-labelled Bacillus subtilis ParB L5C (natural protein, UniProt P26497 1-282, looked up)
chain: MAKGCGKGINALFNQVDLSEETVEEIKIADLRPNPYQPRKHFDDEALAELKESVLQHGILQPLIVRKSLKGYDIVAGERRFRAAKLAGLDTVPAIVRELSEALMREIALLENLQREDLSPLEEAQAYDSLLKHLDLTQEQLAKRLGKSRPHIANHLRLLTLPENIQQLIAEGTLSMGHGRTLLGLKNKNKLEPLVQKVIAEQLNVRQLEQLIQQLNQNVPRETKKKEPVKDAVLKERESYLQNYFGTTVNIKRQKKKGKIEIEFFSNEDLDRILELLSERES
modifications: TMR-maleimide label on the ParB^L5C variant (labelling efficiency 70% of monomers)
notes: ParB (Spo0J) of Bacillus subtilis with L5C, expressed untagged; Untagged; also called ParB^TMR; source: E. coli BL21-Gold (DE3), purified (ammonium sulfate, Heparin, HiTrap SP, Superdex 200), labelled with TMR-maleimide
B1: binds [1].

B2: Bacillus subtilis ParB S278C (natural protein, UniProt P26497 1-282, looked up)
chain: B1 chain with C5L, S278C
notes: ParB (Spo0J) of Bacillus subtilis with S278C, expressed untagged; Untagged; C278 of the two chains is cross-linked by BMOE at the C-terminus; source: E. coli BL21-Gold (DE3), purified
B2: binds [2].

B3: Bacillus subtilis ParB T22C (natural protein, UniProt P26497 1-282, looked up)
chain: B1 chain with C5L, T22C
notes: ParB (Spo0J) of Bacillus subtilis with T22C, expressed untagged; Untagged; C22 of the two chains is cross-linked by BMOE in the N-terminally closed clamp; source: E. coli BL21-Gold (DE3), purified
B3: binds [3].
